Consider two substances from PMC3464217.

For this experiment, the target named is recombinant gp160 (HIV (IIIB or MN/LAI)). Nature of the experiment: SPR. The conditions noted are these: bispecific antibody.

“HY-[Fx2-Hx4-Fx2]-7B2 (from UniProt P01857)”: the Ka was 4.6e+10 M⁻¹ and the Kd is 0.021 nM. Regarding HY-[Hx4]-7B2 (from UniProt P01857), the Ka is 1.7e+10 M⁻¹.
